From the MegaScale stability set (Tsuboyama et al. 2023)

B1: 5KPH (parent)
chain: EEKRQVKQVAKEKLLEQSPNSKVQVRRVQKQGNTIRVELELRTNGKKENYTVEVERQGNTWTVKRITRT

Variants of: B1
Assay: folding stability dG (cDNA display proteolysis); higher = more stable
Details: PBS, room temperature

| Variant | folding stability dG [kcal/mol] |
| --- | --- |
| EEKRQVKQVAKEKLLEQSPNSKVRVRRVQKQGNTIRVELELRTNGKKENYTVEVERQGNTWTVKRITRT [Q24R] | 4.41 |
| EEKRQVKQVAKEKLLEQSPNSKVEVRRVQKQGNTIRVELELRTNGKKENYTVEVERQGNTWTVKRITRT [Q24E] | 3.67 |
| EEKRQVKQVAKEKLLEQSPNSKVWVRRVQKQGNTIRVELELRTNGKKENYTVEVERQGNTWTVKRITRT [Q24W] | 4.4 |
| EEKRQVKQVAKEKLLEQSPNSKVHVRRVQKQGNTIRVELELRTNGKKENYTVEVERQGNTWTVKRITRT [Q24H] | 4.28 |
| EEKRQVKQVAKEKLLEQSPNSKVVVRRVQKQGNTIRVELELRTNGKKENYTVEVERQGNTWTVKRITRT [Q24V] | 4.25 |
| EEKRQVKQVAKEKLLEQSPNSKVKVRRVQKQGNTIRVELELRTNGKKENYTVEVERQGNTWTVKRITRT [Q24K] | 4.33 |
| EEKRQVKQVAKEKLLEQSPNSKVMVRRVQKQGNTIRVELELRTNGKKENYTVEVERQGNTWTVKRITRT [Q24M] | 4.43 |
| EEKRQVKQVAKEKLLEQSPNSKVFVRRVQKQGNTIRVELELRTNGKKENYTVEVERQGNTWTVKRITRT [Q24F] | 4.47 |
| EEKRQVKQVAKEKLLEQSPNSKVLVRRVQKQGNTIRVELELRTNGKKENYTVEVERQGNTWTVKRITRT [Q24L] | 4.38 |
| EEKRQVKQVAKEKLLEQSPNSKVAVRRVQKQGNTIRVELELRTNGKKENYTVEVERQGNTWTVKRITRT [Q24A] | 3.97 |
| EEKRQVKQVAKEKLLEQSPNSKVIVRRVQKQGNTIRVELELRTNGKKENYTVEVERQGNTWTVKRITRT [Q24I] | 4.3 |
| EEKRQVKQVAKEKLLEQSPNSKVSVRRVQKQGNTIRVELELRTNGKKENYTVEVERQGNTWTVKRITRT [Q24S] | 4.13 |
| EEKRQVKQVAKEKLLEQSPNSKVYVRRVQKQGNTIRVELELRTNGKKENYTVEVERQGNTWTVKRITRT [Q24Y] | 4.48 |
| EEKRQVKQVAKEKLLEQSPNSKVTVRRVQKQGNTIRVELELRTNGKKENYTVEVERQGNTWTVKRITRT [Q24T] | 4.24 |
| EEKRQVKQVAKEKLLEQSPNSKVNVRRVQKQGNTIRVELELRTNGKKENYTVEVERQGNTWTVKRITRT [Q24N] | 3.77 |
| EEKRQVKQVAKEKLLEQSPNSKVGVRRVQKQGNTIRVELELRTNGKKENYTVEVERQGNTWTVKRITRT [Q24G] | 3.09 |
| EEKRQVKQVAKEKLLEQSPNSKVCVRRVQKQGNTIRVELELRTNGKKENYTVEVERQGNTWTVKRITRT [Q24C] | 3.83 |
| EEKRQVKQVAKEKLLEQSPNSKVPVRRVQKQGNTIRVELELRTNGKKENYTVEVERQGNTWTVKRITRT [Q24P] | 1.25 |
| EEKRQVKQVAKEKLLEQSPNSKVDVRRVQKQGNTIRVELELRTNGKKENYTVEVERQGNTWTVKRITRT [Q24D] | 3.53 |
| EEKRQVKQVAKEKLLEQSPNSKVQYRRVQKQGNTIRVELELRTNGKKENYTVEVERQGNTWTVKRITRT [V25Y] | 2.81 |

| Variant | folding stability dG [kcal/mol] |
| --- | --- |
| EEKRQVKQVAKEKLLEQSPNSKVQERRVQKQGNTIRVELELRTNGKKENYTVEVERQGNTWTVKRITRT [V25E] | 1.74 |
| EEKRQVKQVAKEKLLEQSPNSKVQSRRVQKQGNTIRVELELRTNGKKENYTVEVERQGNTWTVKRITRT [V25S] | 1.84 |
| EEKRQVKQVAKEKLLEQSPNSKVQKRRVQKQGNTIRVELELRTNGKKENYTVEVERQGNTWTVKRITRT [V25K] | 1.3 |
| EEKRQVKQVAKEKLLEQSPNSKVQMRRVQKQGNTIRVELELRTNGKKENYTVEVERQGNTWTVKRITRT [V25M] | 2.63 |
| EEKRQVKQVAKEKLLEQSPNSKVQTRRVQKQGNTIRVELELRTNGKKENYTVEVERQGNTWTVKRITRT [V25T] | 2.85 |
| EEKRQVKQVAKEKLLEQSPNSKVQDRRVQKQGNTIRVELELRTNGKKENYTVEVERQGNTWTVKRITRT [V25D] | 1.17 |
| EEKRQVKQVAKEKLLEQSPNSKVQNRRVQKQGNTIRVELELRTNGKKENYTVEVERQGNTWTVKRITRT [V25N] | 1.72 |
| EEKRQVKQVAKEKLLEQSPNSKVQFRRVQKQGNTIRVELELRTNGKKENYTVEVERQGNTWTVKRITRT [V25F] | 3.77 |
| EEKRQVKQVAKEKLLEQSPNSKVQIRRVQKQGNTIRVELELRTNGKKENYTVEVERQGNTWTVKRITRT [V25I] | 3.76 |
| EEKRQVKQVAKEKLLEQSPNSKVQGRRVQKQGNTIRVELELRTNGKKENYTVEVERQGNTWTVKRITRT [V25G] | 1.64 |
| EEKRQVKQVAKEKLLEQSPNSKVQHRRVQKQGNTIRVELELRTNGKKENYTVEVERQGNTWTVKRITRT [V25H] | 2.19 |
| EEKRQVKQVAKEKLLEQSPNSKVQQRRVQKQGNTIRVELELRTNGKKENYTVEVERQGNTWTVKRITRT [V25Q] | 1.67 |
| EEKRQVKQVAKEKLLEQSPNSKVQCRRVQKQGNTIRVELELRTNGKKENYTVEVERQGNTWTVKRITRT [V25C] | 3.09 |
| EEKRQVKQVAKEKLLEQSPNSKVQLRRVQKQGNTIRVELELRTNGKKENYTVEVERQGNTWTVKRITRT [V25L] | 2.91 |
| EEKRQVKQVAKEKLLEQSPNSKVQARRVQKQGNTIRVELELRTNGKKENYTVEVERQGNTWTVKRITRT [V25A] | 2.95 |
| EEKRQVKQVAKEKLLEQSPNSKVQWRRVQKQGNTIRVELELRTNGKKENYTVEVERQGNTWTVKRITRT [V25W] | 2.7 |
| EEKRQVKQVAKEKLLEQSPNSKVQPRRVQKQGNTIRVELELRTNGKKENYTVEVERQGNTWTVKRITRT [V25P] | 2.2 |
| EEKRQVKQVAKEKLLEQSPNSKVQRRRVQKQGNTIRVELELRTNGKKENYTVEVERQGNTWTVKRITRT [V25R] | 1.71 |
| EEKRQVKQVAKEKLLEQSPNSKVQVRKVQKQGNTIRVELELRTNGKKENYTVEVERQGNTWTVKRITRT [R27K] | 3.62 |
